Data set [1] in a line: folding stability dG unfold from chymotrypsin proteolysis; higher = more stable. The method, boiled down:
(§1)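 Designed mini-proteins with no cysteine and under 80 residues were kept only if AlphaFold2 dimer inter-PAE was above 15. In a PA-tagged cDNA display construct, they were digested with trypsin and chymotrypsin and then sequenced. K50 was inferred by Bayesian fitting of counts, and unfolding free energy was derived per protease or combined against a sequence-predicted unfolded-state K50 and a shared folded-state K50.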

A short description of data set [2]: folding stability dG unfold from trypsin proteolysis; higher = more stable. The method, boiled down: as §1
Data set [3] in a line: folding stability dG unfold (combined trypsin and chymotrypsin); higher = more stable. The method, boiled down: as §1

± gives the half width of the 95% confidence interval.

As for “SAGGSAGGSSSMTLTTDDGSTLDSVTRDPNSDTATVTYSGSGETVTATATTLPDGSVVVTVVTSAGGSAGGS [r12_839_JUSTAS]”, the “folding stability dG unfold” value in data set [1] was 0.784 ± 0.092 kcal/mol; in data set [2], 1.26 ± 0.054 kcal/mol; in data set [3] it was 1.08 ± 0.11 kcal/mol.
The like results for “SAGGSAGGSSSVVSTLEETPDSVVEKVETPDPIIVERVPLPDGTVEVRVFKPDGTPISISTLGSAGGSAGGS [r12_1061_JUSTAS]” were, in that order, 0.0395 ± 0.18 kcal/mol, 0.99 ± 0.036 kcal/mol and 0.507 ± 0.12 kcal/mol.
In the case of “SAGGSAGGSSTLTLTVRVEVTVEVDGKTYTFTAELTLTVELPPLPEEDLKLYRTDDGELRLVRSAGGSAGGS [r12_1031_TrROS_Hall]”, the “folding stability dG unfold” value was 2.91 ± 0.24 kcal/mol in data set [1], 2.94 ± 0.21 kcal/mol in data set [2] and 2.88 ± 0.47 kcal/mol in data set [3].
The like results for “SAGGSAGGSSVKAKLLSYSRDPTSDLVSVELLIEKSSETIPITLTVPPSEVQPGATITIEIRPSAGGSAGGS [r12_76_JUSTAS]” were, in that order, 0.609 ± 0.11 kcal/mol, -0.616 ± 0.16 kcal/mol and 0.289 ± 0.072 kcal/mol.
With “SAGGSAGGSSVTLTFTGGNSEVTVELDAGGEGGFLARVTVVTESDGKLETVEADFYLGSLPGLSAGGSAGGS [r12_769_TrMRF]”, the “folding stability dG unfold” value was 3.77 ± 0.065 kcal/mol in data set [1], 2.75 ± 0.13 kcal/mol in data set [2] and 3.29 ± 0.13 kcal/mol in data set [3].
For the sequence “SAGGSAGGSTILDALEKGFEITDIEPNNDGPYMLTVRNPEEGYRVTIMIHPNGDIMIQVQPVPSAGGSAGGS [r12_166_TrROS]”, the “folding stability dG unfold” value was 2.19 ± 0.042 kcal/mol in data set [1], 1.83 ± 0.075 kcal/mol in data set [2] and 2.06 ± 0.1 kcal/mol in data set [3].
The matching figures for “SAGGSAGGSTITFFFDNPEQIEKLIEELMDKNNVEVEVEPHPDNGMPMVTFTNPNNGKEITIMSAGGSAGGS [r12_635_TrROS]”: 0.497 ± 0.23 kcal/mol, 0.48 ± 0.057 kcal/mol and 0.54 ± 0.21 kcal/mol.
The like results for “SAGGSAGGSTIVIRLSKEELENMTAEELAEALAEEGAEVTVTVEYDEETDELVVTIEIHPEDLSAGGSAGGS [r12_716_TrROS_Hall]” were, in that order, 2.01 ± 0.063 kcal/mol, 2.12 ± 0.12 kcal/mol and 2.11 ± 0.13 kcal/mol.
The matching figures for “SAGGSAGGSTLEEVRKIAEEAVKKGYPYVVISAPGGLKKVFKVEEDDIVEIPDSEGYTVELLSSAGGSAGGS [r20_44_TrMRF]”: 0.85 ± 0.14 kcal/mol, 0.202 ± 0.07 kcal/mol and 0.52 ± 0.12 kcal/mol.
As to “SAGGSAGGSTLRLRFRTPDGRLFEIEAEVRPDPDGRVYRLLRIREYDPETDEWLERPFRLPILSAGGSAGGS [r12_57_TrMRF]”, the “folding stability dG unfold” value in data set [1] worked out at 3.83 ± 0.019 kcal/mol; in data set [2], 3.77 ± 0.12 kcal/mol; in data set [3], 3.82 ± 0.056 kcal/mol.
The matching figures for “SAGGSAGGSTPTEFAKNLNVTEVKYDPVKKTVRVIHEFEDYLVLVEYDPSTGEVRVEVFSKDESAGGSAGGS [r12_214_TrMRF]”: 2.05 ± 0.12 kcal/mol, 1.4 ± 0.12 kcal/mol and 1.84 ± 0.24 kcal/mol.
Consider “SAGGSAGGSTTLTVDLPFGPATVHITGLPDSFVAFIEFDNPPFRATATIKEISKNGIVIEDIDFSAGGSAGG [r6_982_TrMRF]”, for which the figures for the “folding stability dG unfold” value in data set [1], in data set [2] and in data set [3] were 1.9 ± 0.13 kcal/mol, 2.2 ± 0.086 kcal/mol and 2.1 ± 0.22 kcal/mol, respectively.
For the sequence “SAGGSAGGSVITLPNGVKLVTVKVSRPELDETETVTVPLEGMTLEEIKERLKKEGYKEVVFLESAGGSAGGS [r12_792_JUSTAS]”, the “folding stability dG unfold” value in data set [1] was determined as 1.28 ± 0.036 kcal/mol; in data set [2], 1.19 ± 0.032 kcal/mol; in data set [3] it was 1.26 ± 0.077 kcal/mol.
The matching figures for “SAGGSAGGSVKPGEKVLVRVRNPATGRWEEVVATVNEDGSITIYNKETGKTETIPLKDIELVPSAGGSAGGS [r12_726_TrROS_Hall]”: 4.25 ± 0.055 kcal/mol, 4.6 ± 0.17 kcal/mol and 4.37 ± 0.088 kcal/mol.
The like results for “SAGGSAGGSWMLMVKIEFPENGQERHFMLPPGMTIEDIADRLREDGAPIKDIEVQWMPLPPGDSAGGSAGGS [r12_955_TrROS]” were, in that order, 1.62 ± 0.086 kcal/mol, 1.47 ± 0.033 kcal/mol and 1.62 ± 0.072 kcal/mol.
The like results for “SAGGSAGGSWYLRIEYMNGKEREFPFPPDMPGQPAEEIADKLGSPNMKVEFYDPEGEPREFDISAGGSAGGS [r12_411_TrROS]” were, in that order, 0.754 ± 0.13 kcal/mol, 0.589 ± 0.071 kcal/mol and 0.726 ± 0.18 kcal/mol.
Turning to “SAGGSAGGTAEELARKLEEALREAGYEVEKIEVVRVERKGDKVTIEVRVTLPDGRKLELRIELDSAGGSAGG [r6_839_TrROS_Hall]”, the figures for the “folding stability dG unfold” value in data set [1], in data set [2] and in data set [3] were 3.22 ± 0.13 kcal/mol, 4.09 ± 0.3 kcal/mol and 3.67 ± 0.21 kcal/mol, respectively.
The like results for “SAGGSAGGTIMIQFPDMDSPEEAIDQAEFFINEFMKQGNPGKPIKVTIQDPKNGQQQTFEIPLESAGGSAGG [r6_238_TrROS]” were, in that order, 0.244 ± 0.16 kcal/mol, -0.935 ± 0.49 kcal/mol and -0.114 ± 0.16 kcal/mol.
The matching figures for “SAGGSAGGTITLPGVTVEITEENGTLTIRVTSPDGRTLTRTITLPAGETVTVTDANGKTVTVRLSAGGSAGG [r6_806_TrROS_Hall]”: 3.34 ± 0.059 kcal/mol, 2.8 ± 0.073 kcal/mol and 3.18 ± 0.11 kcal/mol.
The like results for “SAGGSAGGTITVTPLPDGRELITYPEKNALVEIVKDPATGKETVIVYEDGEPKVISLEELKKKLSAGGSAGG [r6_534_JUSTAS]” were, in that order, 0.383 ± 0.021 kcal/mol, 0.359 ± 0.059 kcal/mol and 0.417 ± 0.079 kcal/mol.
Take “SAGGSAGGTIWFDNPEDVERVVKDLRQEFPPDNPIDIMIWGPGSMYVIEITPDKIKDVEVYPMDSAGGSAGG [r6_289_TrROS]”: the “folding stability dG unfold” value turned out to be 0.683 ± 0.14 kcal/mol in data set [1], 0.318 ± 0.082 kcal/mol in data set [2] and 0.598 ± 0.27 kcal/mol in data set [3].
The like results for “SAGGSAGGTLSIEELKELFPEAEKIEAEEVELTFTLPNGKKVKAKYRLVTVYRDNKPILLLVPGSAGGSAGG [r6_138_TrMRF]” were, in that order, 2.97 ± 0.056 kcal/mol, 2.82 ± 0.17 kcal/mol and 2.97 ± 0.12 kcal/mol.
The matching figures for “SAGGSAGGTLTIDELKELFPDVTEVKIEEKEETYTDKNGKKRKVKTKVIKVKVNGKEVTIEVKESAGGSAGG [r6_138_TrROS_Hall]”: 0.534 ± 0.13 kcal/mol, 1.96 ± 0.05 kcal/mol and 1.25 ± 0.19 kcal/mol.
Consider “SAGGSAGGTPKLAETRKNGKKVLAPVEVDPETGVITVTPPDGTTEVVPASRPPPFIEEDPSLGSSAGGSAGG [r6_174_JUSTAS]”, for which the “folding stability dG unfold” value in data set [1] is 1.44 ± 0.037 kcal/mol; in data set [2], -0.252 ± 0.042 kcal/mol; in data set [3] it was 1.03 ± 0.087 kcal/mol.
The matching figures for “SAGGSAGGVEPVVVGRVPVVVRDPATGELREAEILRALPDGTLFIRFPNGERAEIRGAPVLSLASAGGSAGG [r6_433_TrMRF]”: 1.54 ± 0.096 kcal/mol, 1.07 ± 0.035 kcal/mol and 1.35 ± 0.086 kcal/mol.
The like results for “SAGGSAGGWYVRITTNNGNQISIHLEELGLPEESFKEMTEEDLAEYLSKLFPGRPIKIEPVPLPSAGGSAGG [r6_165_TrROS]” were, in that order, 3.35 ± 0.11 kcal/mol, 3.07 ± 0.14 kcal/mol and 3.14 ± 0.14 kcal/mol.
The like results for “SAGGSAGGYIVKIKMPKFPHVFIFPPEMPPKQFADEIRRRFGNPDAPITDITIQPVTPEELKKLSAGGSAGG [r6_122_TrROS]” were, in that order, 1.4 ± 0.12 kcal/mol, 0.787 ± 0.059 kcal/mol and 1.16 ± 0.12 kcal/mol.
Turning to “SAGGSAGILEKTIKLAEELGLPVVEAKVVKKKNKVYVFFKSKKSKKYVIEIDGDKITIKPYSVVKKSAGGSA [r15_901_TrMRF]”, the “folding stability dG unfold” value in data set [1] was found to be 2.99 ± 0.05 kcal/mol; in data set [2] it was 1.954 ± 0.014 kcal/mol; in data set [3], 2.68 ± 0.059 kcal/mol.
The matching figures for “SAGGSAGKITIPARVKITLTPPNGPTVTFDAIITRVEDNSIELILGNVPITIPPNAKNVTITSVEGSAGGSA [r15_510_TrMRF]”: 1.53 ± 0.022 kcal/mol, 1.45 ± 0.018 kcal/mol and 1.49 ± 0.052 kcal/mol.
With “SAGGSAGKTKIEIRPLPDGSYLVLVTSPDGSKSEFIADGPDIPLPELLKKLNLPPDIEVVNAELPESAGGSA [r15_167_TrMRF]”, the “folding stability dG unfold” value in data set [1] was 3.05 ± 0.056 kcal/mol; in data set [2], 2.98 ± 0.12 kcal/mol; in data set [3], 2.98 ± 0.13 kcal/mol.
The like results for “SAGGSAGLAEAILREAASAGIPLENVRIVDVRAFVTPDAVVFRARIEYRLPNSTSLAYADAVVPAPSAGGSA [r15_863_TrMRF]” were, in that order, 1.82 ± 0.086 kcal/mol, 1.42 ± 0.026 kcal/mol and 1.69 ± 0.073 kcal/mol.
“SAGGSAGMNRVSLKPLPDGTYEVTITYPDGSTSTYTVPGPAVSLEEILKRLNIPESIEVEDVEPLGSAGGSA [r15_167_JUSTAS]”: the “folding stability dG unfold” value in data set [1] amounted to 3.87 ± 0.059 kcal/mol; in data set [2], 2.64 ± 0.089 kcal/mol; in data set [3], 3.52 ± 0.075 kcal/mol.
The like results for “SAGGSAGMPDIIYKVKITVTSSGKVTTLDITLPSEEEVKKAIEELKKKGYTNIKPEIEKFLKSELGSAGGSA [r15_1015_JUSTAS]” were, in that order, 2.13 ± 0.066 kcal/mol, 1.15 ± 0.12 kcal/mol and 2 ± 0.19 kcal/mol.
The matching figures for “SAGGSAGMPSPVLLDVTIANPDGTTSTVTAPYASPEVAEAYVRENYPDAEVTYDPATGRVSVNVPSSAGGSA [r15_313_JUSTAS]”: 2.09 ± 0.033 kcal/mol, 2.31 ± 0.092 kcal/mol and 2.2 ± 0.054 kcal/mol.
The matching figures for “SAGGSAGMTVTKTFTLPGYKVELTTHPGLPPDAPVTIEVTLTPPDGSVVKSTRTVLARPDDPSVLLSAGGSA [r15_10_JUSTAS]”: 2.73 ± 0.12 kcal/mol, 2.15 ± 0.13 kcal/mol and 2.46 ± 0.16 kcal/mol.
For “SAGGSAGMVSLTTTTTPVETRTLPDGTVVTLEKTELPDDTVVLTTTTTDPATGEVTTETTTVSLAGSAGGSA [r15_401_JUSTAS]”, the “folding stability dG unfold” value in data set [1] stood at 1.11 ± 0.022 kcal/mol; in data set [2], 0.409 ± 0.026 kcal/mol; in data set [3], 0.884 ± 0.11 kcal/mol.
